Experimental data as given in patent US12129308 (Merck KGaA, dated 2024).
Where a chain is given by its changes, count along the chain named.

B1: 516G08-40E09 clone 76 (bispecific antibody)
chain: EVQLVESGGGLVQPGGSLRLSCAGSGSIFRINVMAWYRQAPGKQRELVAAITSGGTTNYADSVKGRFTISRDNSKNTVYLQMNSLRPEDTAVYYCYADIGWPYVLDYDFWGQGTLVTVSSGGGGSGGGGSGGGGSGGGGSGGGGSGGGGSGGGGSEVQLVESGGGSVQAGGSLRLSCAASGSTFSRYSMNWYRQAPGKQREFVAGISVGRITNYAVSVRGRFTISRDNAEGTGYLQMNSLKPEDTAVYYCNAGGLQGYWGLGTLVTVSS
B2: C0101PMP062C02 (VHH)
VHH: EVQLVESGGALVRPGGSLRLSCAASGFAFSAAYMSWVRQAPGRGLEWVSSISDDGSKTYYADSVKGRFTISRDNAKNTVYLQMNNLKPDDTAVYYCNTGYGATTTRPGRYWGQGTQVTVSS
notes: Profile 2 Nanobody; also called C0101062C02
B3: 62C02-40E09 clone 72 (bispecific antibody)
chain: EVQLVESGGALVRPGGSLRLSCAASGFAFSAAYMSWVRQAPGRGLEWVSSISDDGSKTYYADSVKGRFTISRDNAKNTVYLQMNNLKPDDTAVYYCNTGYGATTTRPGRYWGQGTLVTVSSGGGGSGGGGSGGGGSGGGGSGGGGSGGGGSGGGGSEVQLVESGGGSVQAGGSLRLSCAASGSTFSRYSMNWYRQAPGKQREFVAGISVGRITNYAVSVRGRFTISRDNAEGTGYLQMNSLKPEDTAVYYCNAGGLQGYWGLGTLVTVSS
B4: 40E09-516G08 clone 70 (bispecific antibody)
chain: EVQLVESGGGSVQAGGSLRLSCAASGSTFSRYSMNWYRQAPGKQREFVAGISVGRITNYAVSVRGRFTISRDNAEGTGYLQMNSLKPEDTAVYYCNAGGLQGYWGLGTLVTVSSGGGGSGGGGSGGGGSGGGGSGGGGSGGGGSGGGGSEVQLVESGGGLVQPGGSLRLSCAGSGSIFRINVMAWYRQAPGKQRELVAAITSGGTTNYADSVKGRFTISRDNSKNTVYLQMNSLRPEDTAVYYCYADIGWPYVLDYDFWGQGTLVTVSS
B5: C0101PMP516G08 (VHH)
VHH: DVQLVESGGGLVQPGGSLRLSCAGSGSIFRINVMAWYRQAPGKQRELVAAITSGGTTNYADSVKGRFTISRDNSKNTVYLQMNSLRPEDTAVYYCYADIGWPYVLDYDFWGQGTLVTVSS
notes: Profile 2 Nanobody; also called C0101516G08
B6: 40E09-517A01 clone 71 (bispecific antibody)
chain: EVQLVESGGGSVQAGGSLRLSCAASGSTFSRYSMNWYRQAPGKQREFVAGISVGRITNYAVSVRGRFTISRDNAEGTGYLQMNSLKPEDTAVYYCNAGGLQGYWGLGTLVTVSSGGGGSGGGGSGGGGSGGGGSGGGGSGGGGSGGGGSEVQLVESGGGLVQPGGSLRLSCAASGRTFSSYAMGWFRQAPGKEREFVAAISWSGGSTYYADSVKGRFTISRDNSKNTVYLQMNSLRPEDTAVYYCTAALAVYGPNRYRYGPVGEYNYWGQGTLVTVSS
B7: 517A01-40E09 clone 80 (bispecific antibody)
chain: EVQLVESGGGLVQPGGSLRLSCAASGRTFSSYAMGWFRQAPGKEREFVAAISWSGGSTYYADSVKGRFTISRDNSKNTVYLQMNSLRPEDTAVYYCTAALAVYGPNRYRYGPVGEYNYWGQGTLVTVSSGGGGSGGGGSGGGGSGGGGSGGGGSGGGGSGGGGSEVQLVESGGGSVQAGGSLRLSCAASGSTFSRYSMNWYRQAPGKQREFVAGISVGRITNYAVSVRGRFTISRDNAEGTGYLQMNSLKPEDTAVYYCNAGGLQGYWGLGTLVTVSS
B8: 40E09-62C02 clone 69 (bispecific antibody)
chain: EVQLVESGGGSVQAGGSLRLSCAASGSTFSRYSMNWYRQAPGKQREFVAGISVGRITNYAVSVRGRFTISRDNAEGTGYLQMNSLKPEDTAVYYCNAGGLQGYWGLGTLVTVSSGGGGSGGGGSGGGGSGGGGSGGGGSGGGGSGGGGSEVQLVESGGALVRPGGSLRLSCAASGFAFSAAYMSWVRQAPGRGLEWVSSISDDGSKTYYADSVKGRFTISRDNAKNTVYLQMNNLKPDDTAVYYCNTGYGATTTRPGRYWGQGTLVTVSS
B9: C010100683 (bispecific antibody)
chain: EVQLVESGGGLVQPGGSLRLSCAASGFAFSAAYMSWVRQAPGKGLEWVSSISDDGSKTYYADSVKGRFTISRDNSKNTVYLQMNSLRPEDTAVYYCNTGYGATTTRPGRYWGQGTLVTVSSGGGGSGGGGSGGGGSGGGGSGGGGSGGGGSGGGGSEVQLVESGGGLVQPGGSLRLSCAASGSTFIINVVRWYRRAPGKQRELVATISSGGNANYVDSVRGRFTISRDNSKNTVYLQMNSLRPEDTAVYYCNVPTTHYGGVYYGPYWGQGTLVTVSSGGGGSGGGGSGGGGSGGGGSGGGGSGGGGSGGGGSEVQLVESGGGLVQPGGSLRLSCAASGSTFIINVVRWYRRAPGKQRELVATISSGGNANYVDSVRGRFTISRDNSKNTVYLQMNSLRPEDTAVYYCNVPTTHYGGVYYGPYWGQGTLVTVSS
notes: MMP13-Aggrecan bispecific Nanobody construct; also called 62C02SO-114F08SO-114F08SO
B10: C0101PMP520B06 (VHH)
VHH: DVQLVESGGGLVQPGGSLRLSCAASGRTFSSYAMGWFRQAPGKEREFVAAISWGGGSTYYSDSVKGRFTISRDNSKNTVYLQMNSLRPEDTAVYYCTAALGSTGSGSTPVPEYRYWGQGTLVTVSS
notes: Profile 2 Nanobody
B11: C0101PMP063F01 (VHH)
VHH: EVQLVESGGGLVQPGGSLRLSCSASTGIFRINTMGWHRQAPGKQRDLVATFTSDDNTKYADSVKGRFTISRDNAENTVYLQMNDLKPEDTAVYYCHATTVMYDSNSPDYWGQGTQVTVSS
notes: Profile 2 Nanobody
B12: C0101PMP529G11 (VHH)
VHH: B5 VHH with G24A, V33A, A35G, T52I, N58Y
notes: Profile 2 Nanobody
B13: C0101PMP529C12 (VHH)
VHH: DVQLVESGGGLVQPGGSLRLSCVASGSIFSINAMGWYRQAPGKQRELVAAISSGGSTYYADSVKGRFTISRDNSKNTVYLQMNSLRPEDTAVYYCNAAVDASRGLPYELYYYWGQGTLVTVSS
notes: Profile 2 Nanobody; also called C0101529C12
B14: C0101PMP519E04 (VHH)
VHH: DVQLVESGGGLVQPGGSLRLSCVASGPTFSDYAMGWFRQAPGKEREFVAAISWSGGSTYYADSVKGRFTISRDNSKNTVYLQMNSLRPEDTAVYYCTAARGGGYRASGGPLSEYNYWGQGTLVTVSS
notes: Profile 2 Nanobody
B15: C0101PMP521F02 (VHH)
VHH: DVQLVESGGGLVQPGGSLRLSCVASGLTFSSYAMGWFRQAPGKEREFVAAISWSGGRTYYADSVKGRFTISRDNSKNTVYLQMNSLRPEDTAVYYCTAARGPGSVGPSEEYNYWGQGTLVTVSS
notes: Profile 2 Nanobody

target: T1, activated human MMP13 (human, UniProt P45452 104-471); assay: cell-based or functional assay

| IC50, human fluorogenic collagen assay | Binder |
| --- | --- |
| 3.55 nM | B1 |
| 8.32 nM | B2 |
| 2.4 nM | B3 |
| 2.9 nM | B4 |
| 3.78 nM | B5 |
| 6.5 nM | B6 |
| 4.06 nM | B7 |

target: T2, activated rat MMP13 (rat, UniProt P23097 99-466); assay: cell-based or functional assay

| IC50, (adapted) rat fluorogenic peptide assay | Binder |
| --- | --- |
| 0.16 nM | B1 |
| 2.88 nM | B2 |
| 1.12 nM | B8 |
| 0.1 nM | B3 |
| 0.12 nM | B4 |
| 4.98 nM | B5 |
| 0.11 nM | B6 |
| 0.13 nM | B7 |

target: T3, Aggrecan; assay: competition ELISA (CAP) on Aggrecan; competitor not stated
T3 construct: also called CAP

| IC50 | Binder |
| --- | --- |
| 0.23 nM | B9 |

target: T4, activated MMP13 (species not stated) (Homo sapiens (Human), UniProt P45452 104-471, Biotinylated in the TIMP-2 competition ELISA (sites not given). Activated form: pro-peptide removed.); assay: TIMP-2 competition ELISA; Nanobody pre-incubated with 1.26 nM activated MMP13-biotin, binding to captured TIMP-2
T4 construct: campaign 4 ELISA; Probably human

| IC50 | Binder |
| --- | --- |
| 0.9 nM | B2 |
| 9.3 nM | B10 |
| 177 nM | B11 |
| 0.5 nM | B5 |
| 7.9 nM | B12 |
| 0.4 nM | B13 |
| 5.5 nM | B14 |
| 8.5 nM | B15 |

target: bovine MMP13 (bovine, UniProt O77656 104-471); assay: cell-based or functional assay

| IC50, bovine fluorogenic peptide assay | Binder |
| --- | --- |
| 3.1 nM | B2 |
| 27.7 nM | B10 |
| 191 nM | B11 |
| 1.5 nM | B5 |
| 20.1 nM | B12 |
| 1.2 nM | B13 |
| 17.1 nM | B14 |
| 16.1 nM | B15 |

target: T1, activated human MMP13; assay: cell-based or functional assay; remark: another data set of the same source

| IC50, human collagenolytic assay | IC50, human fluorogenic collagen assay | IC50, human fluorogenic peptide assay | Binder |
| --- | --- | --- | --- |
| 1.4 nM | 8.3 nM | 1.4 nM | B2 |
|  | 27.5 nM | 13.4 nM | B10 |
|  | 134 nM | 82.4 nM | B11 |
| 0.9 nM | 3.8 nM | 0.8 nM | B5 |
|  | 17.9 nM | 10.3 nM | B12 |
|  | 4.9 nM | 1.2 nM | B13 |
|  | 24.8 nM | 9.5 nM | B14 |
|  | 20.7 nM | 7.2 nM | B15 |

target: T2, activated rat MMP13; assay: cell-based or functional assay; remark: another data set of the same source

| IC50, rat fluorogenic peptide assay | Binder |
| --- | --- |
| 1.1 nM | B2 |
| 7.8 nM | B10 |
| 20.2 nM | B11 |
| 5.2 nM | B5 |
| 80.6 nM | B12 |
| 0.2 nM | B13 |
| 3 nM | B14 |
| 2.1 nM | B15 |

target: activated dog MMP13 (dog, UniProt P45452 104-471 (human entry)); assay: cell-based or functional assay

| IC50, dog fluorogenic peptide assay | Binder |
| --- | --- |
| 1 nM | B2 |
| 17.3 nM | B10 |
| 73.9 nM | B11 |
| 4.4 nM | B5 |
| 39.1 nM | B12 |
| 0.2 nM | B13 |
| 7 nM | B14 |
| 5.5 nM | B15 |

target: cynomolgus MMP13 (cynomolgus, UniProt A0A2K5U988 104-471); assay: cell-based or functional assay

| IC50, cyno fluorogenic peptide assay | Binder |
| --- | --- |
| 1.4 nM | B2 |
| 9.5 nM | B10 |
| 108 nM | B11 |
| 0.4 nM | B5 |
| 7.1 nM | B12 |
| 0.7 nM | B13 |
| 7.2 nM | B14 |
| 7 nM | B15 |

target: T1, activated human MMP13; assay: cell-based or functional assay; remark: another data set of the same source

| potency, human fluorogenic peptide assay | Binder |
| --- | --- |
| 0.953 nM | B9 |
